From patent US20220049012A1 (NAVI BIO THERAPEUTICIS, published 2022)
Numbering of substitutions follows the chain as printed.

Legend:
[1] = target: recombinant CAIX extra-cellular domain (UniProt Q16790 38-414); experiment: competitive ELISA (Friguet), soluble CAIX ECD against coated CAIX ECD
Procedure: To determine the binding affinity of the anti-CAIX scFvs, competitive ELISA was performed. The CAIX ECD fragment proteins in 2-fold serial dilution (100-13 μg/ml) were pre-incubated with anti-CAIX scFvs (NAVICA9S1: 0.62 μg/ml, NAVICA9S2: 0.32 μg/ml,
NAVICA9L2: 0.16 μg/ml, NAVICA9L3: 0.32 μg/ml) at 1:1 volume ratio at room temperature for 1 hour. The mixtures were then added into ELISA plate coated with CAIX ECD fragment proteins (0.25 or 0.5 μg/well). After 1 hour incubation, the mouse anti-HA IgG (1:5,000) and HRP-conjugated rabbit anti-mouse IgG (1:10,000) were added as the secondary and third antibodies. Following the incubation and washing, 3,3′,5,5′-Tetramethylbenzidine (TMB) was added for color development, which was stopped by HCl and detected using an ELISA plate reader. The Kd values of scFvs were estimated and expressed by molarity (M) as described by Friguet et al. (J. Immunol. Methods, 77: 305-319, 1985). N/A: not available.

[2] = target: recombinant CAIX fragment 2 (UniProt Q16790 154-353); experiment: binding to recombinant CAIX fragments, epitope mapping
[3] = target: T1, recombinant CAIX fragment 3 (UniProt Q16790 228-414, limits assumed); experiment: as above
T1 construct: domain: fragment 3(F3); Expressed in E. coli from pET-21a(+) or pET-32a(+); also called F3; CAIX F3

B1: NAVICA9S2 (scFv, V domains shown)
VH: AVTLDESGGGLQTPRGALSLVCKASGFTFSSFNMFWVRQAPGKGLEYVAAISSDGSRSRYGSAVQGRATISRDNGQSTVRLQLNSLRAEDTGTYYCAKRPYSGCTSNNFCFNAAYIDVWGHGTEVIVSS
VL: ALTQPSSVSANLGETVEITCSGSSGSYGWYQQKSPGSAPVTVIYYNDKRPSDIPSRFSGSKSGSTGTLTITGVQAEDEAVYYCGSADRSGAGIFGAGTTLTVL
notes: Chicken scFv; also called anti-CAIX scFv NAVICA9S2; clone NAVICA9S2; not shown: linker; tags from the pComb3X vector (purified on Ni2+ Sepharose, detected with anti-HA)
B1 gave a Kd [1] of 11.5 nM.

B2: NAVICA9L2 (scFv, V domains shown)
VH: AVTLDESGGGLQTPGGGLSLVCKASGFTFSSYAIQWVRQAPGKGLEWVAGISDDGSWTGYGAAVKGRATISRDNGQSTMRLQLNNLRAEDTGIYYCAKGAGTGYCANRSFGCASTIDAWGHGTEVIVSS
VL: B1 VL with S24R, D47V
notes: Chicken scFv; also called anti-CAIX scFv NAVICA9L2; clone NAVICA9L2; not shown: linker; tags from the pComb3X vector (purified on Ni2+ Sepharose, detected with anti-HA)
With B2 the Kd [1] was 140 nM, the binding result [2] was “no binding” and the binding result [3] was “no binding”.

B3: NAVICA9L3 (scFv, V domains shown)
VH: B1 VH with R15G
VL: B1 VL
notes: Chicken scFv; also called anti-CAIX scFv NAVICA9L3; clone NAVICA9L3; not shown: linker; tags from the pComb3X vector (purified on Ni2+ Sepharose, detected with anti-HA)
For B3, the Kd [1] was 9.26 nM.

B4: NAVICA9S1 (scFv, V domains shown)
VH: AVTLDESEGGLQTPGGALSLVCKASGFTFSSYAMNWVRQAPGKGLEFVAGITNTGSSAGYGAAVKGRATISRDNGQSTVRLQLNNLRAEDTATYFCTKSYGGWCDHACAPDDIDTWGHGTEVIVSS
VL: ALTQPSSVSANPGETVKITCSGGGKNYGWYQQKSPGSAPVTVIYLNDKRPSNIPSRFSGSKSGSTHTLTITGVQAEDEAVYFCGSRDSSPTFGAGTTLTVL
notes: Chicken scFv from phage display, expressed in E. coli; also called anti-CAIX scFv NAVICA9S1; clone NAVICA9S1; not shown: linker; tags from the pComb3X vector (purified on Ni2+ Sepharose, detected with anti-HA)
In the case of B4, the Kd [1] is reported as 64.3 nM.
